Source: patent US20210145973A1 (CITY OF HOPE, published 2021)
Where no end group is shown, it is not given here. phosphorothioated ssDNA 20mer = not defined here

Columns and labels:
STAT3 protein = biological target: T1, STAT3 protein (human, UniProt P40763 2-770); assay: immunoprecipitation of the FITC-labeled peptide, Western blotting, U251 cells (FIG. 20E, 20F)
T1 construct: Endogenous STAT3 of human cells (U251, HepG2) or of HCT116 xenograft tumor homogenates
Text: (§1) FIGS. 20A-20I: Conjugating phosphorothioated DNA oligonucleotides (PS) enables acetyl-STAT3 peptide cell penetration and specific interaction with STAT3 and exportin 7 proteins as well as downregulation of STAT3 activation. FIG. 20A. Phosphorothioated DNA oligonucleotide-modified STAT3 peptides efficiently penetrate human glioma cell line U251 and human colon cancer cell line HCT116, as assessed by flow cytometry. FIG. 20B. Cell penetration of the PS-acetyl-STAT3 peptide and its colocalization with STAT3 protein in U251 cells are shown by confocal microscopy. Scale, 50 μm. FIG. 20C and FIG. 20D. The PS acetyl-STAT3 peptide specifically binds to acetylated STAT3 protein and exportin 7, as assessed by ELISA, in which the plate is coated by an acetylated-STAT3 protein (containing amino acids 127-722), n=3. FIG. 20E and FIG. 20F. The specific interaction between acetyl-STAT3 peptide and STAT3/exportin 7 shown by immunoprecipitation of the FITC-labeled PS-acetyl-STAT3 peptide followed by Western blotting, shown in U251 cells. FIG. 20G. Downregulation of STAT3 phosphorylation, shown in HCT116 tumors by immunoprecipitation/Western blotting. FIG. 20H. […]
(§2) The PS acetyl-STAT3 peptide specifically binds to acetylated STAT3 protein and exportin 7, as assessed by ELISA, in which the plate is coated by an acetylated-STAT3 protein (containing amino acids 127-722), n=3 (FIG. 20C and FIG. 20D). […]

[1] = biological target: T2, acetylated-STAT3 protein (containing amino acids 127-722) (Homo sapiens (Human), UniProt P40763 127-722, acetylated (site not stated for this protein)); assay: ELISA, plate coated with acetylated-STAT3 protein (amino acids 127-722), n=3 (FIG. 20C, 20D)
T2 construct: Coated on the ELISA plate
T2 sequence (P40763 127-722): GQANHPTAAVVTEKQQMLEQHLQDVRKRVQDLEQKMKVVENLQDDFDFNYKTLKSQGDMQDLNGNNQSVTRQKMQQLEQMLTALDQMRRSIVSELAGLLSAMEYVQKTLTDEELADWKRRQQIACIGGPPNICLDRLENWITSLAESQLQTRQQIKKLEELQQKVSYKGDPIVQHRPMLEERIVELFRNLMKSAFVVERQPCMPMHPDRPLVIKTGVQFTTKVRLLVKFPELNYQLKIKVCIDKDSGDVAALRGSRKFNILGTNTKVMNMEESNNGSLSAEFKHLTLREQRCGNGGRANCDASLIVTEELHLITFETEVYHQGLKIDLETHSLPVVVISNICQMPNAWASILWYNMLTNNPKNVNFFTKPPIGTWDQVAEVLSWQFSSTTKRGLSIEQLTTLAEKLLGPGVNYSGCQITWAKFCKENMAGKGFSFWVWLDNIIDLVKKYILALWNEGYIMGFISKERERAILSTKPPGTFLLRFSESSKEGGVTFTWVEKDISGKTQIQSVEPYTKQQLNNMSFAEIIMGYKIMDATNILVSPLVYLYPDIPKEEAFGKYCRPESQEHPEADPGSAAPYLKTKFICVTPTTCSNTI
Text: as §1, §2

T1 sequence (P40763 2-770 limits assumed): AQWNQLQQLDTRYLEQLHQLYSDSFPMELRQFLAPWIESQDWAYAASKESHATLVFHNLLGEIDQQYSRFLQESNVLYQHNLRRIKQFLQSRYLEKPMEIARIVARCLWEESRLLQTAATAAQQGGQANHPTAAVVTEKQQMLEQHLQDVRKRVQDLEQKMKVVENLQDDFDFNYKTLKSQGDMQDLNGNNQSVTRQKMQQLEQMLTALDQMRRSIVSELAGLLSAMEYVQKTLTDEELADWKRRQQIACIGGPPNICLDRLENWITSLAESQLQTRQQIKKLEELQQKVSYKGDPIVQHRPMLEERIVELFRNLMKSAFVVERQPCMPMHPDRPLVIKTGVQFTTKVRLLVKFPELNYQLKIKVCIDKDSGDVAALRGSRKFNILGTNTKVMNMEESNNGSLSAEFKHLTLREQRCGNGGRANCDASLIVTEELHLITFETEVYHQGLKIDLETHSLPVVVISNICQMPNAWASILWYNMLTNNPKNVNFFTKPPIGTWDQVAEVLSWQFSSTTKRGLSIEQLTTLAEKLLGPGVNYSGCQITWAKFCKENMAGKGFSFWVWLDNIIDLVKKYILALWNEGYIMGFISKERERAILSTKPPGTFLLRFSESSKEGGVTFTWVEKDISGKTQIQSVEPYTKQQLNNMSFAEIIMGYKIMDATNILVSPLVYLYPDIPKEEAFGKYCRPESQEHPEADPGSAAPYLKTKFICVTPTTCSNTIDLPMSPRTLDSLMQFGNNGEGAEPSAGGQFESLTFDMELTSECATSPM

binding result (STAT3 protein): binds
binding result [1]: binds
B1: PS-acetyl-STAT3 peptide (STAT3-acet.K685 peptide elongated at its C-terminus with a phosphorothioated ssDNA 20mer, FITC-labeled) (peptide)
peptide: PDIPKEEAFGK(Ac)YCRPESQEHPC-{hydrazide linker with FITC (Fam dT)-phosphorothioated ssDNA 20mer}
modifications: cysteine pairing not given here; reading uncertain
notes: Peptide-oligonucleotide conjugate; only the peptide part is a polypeptide; The FITC in the linker was used as the tag for precipitation
